# Results taken from publication PMC7114414 (Virus Research, 2014).
# T1: HR2P-FITC (HR2P peptide labeled with FITC) (MERS-CoV, UniProt K9N5Q8 1251-1286)
# T1 peptide: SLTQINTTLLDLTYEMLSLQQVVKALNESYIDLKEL
# B1: HR1P peptide (residues 998-1039 of the MERS-CoV S protein, HR1 domain of the S2 subunit) (peptide)
# peptide: ANKFNQALGAMQTGFTTTNEAFHKVQDAVNNNAQALSKLASE
# Molecular target: T1, HR2P-FITC (HR2P peptide labeled with …)
# Assay: native gel or EMSA
binder,measurement,value
B1,binding result,binds
